Source: article PMC6058786 (Haematologica, 2018)

Key:
[1] = molecular target: T1, purified Pin1 WW-domain (UniProt Q13526 5-39); test: ITC
[2] = molecular target: T1, purified Pin1 WW-domain; test: NMR titration
[3] = molecular target: T1, purified Pin1 WW-domain; test: ITC; remark: listed apart in the source

T1 sequence (Q13526 5-39): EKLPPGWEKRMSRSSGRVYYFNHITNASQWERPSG

HKCRKAGVGQSWKENSPLNVS (not fully specified; phosphoserine at 258) [Ser258-phosphorylated TFCD-encoding peptide (ITC)]
Kd [1]: ~137 µM

HKCRKAGVGQSWKENSPLNVS (not fully specified; phosphoserine at 253; phosphoserine at 258) [double phosphorylated pSer253/pSer258 TFCD peptide]
Kd [2]: 133 ± 13 µM

HKCRKAGVGQSWKENSPLNVS [unphosphorylated TFCD (ITC)]
Kd [3]: 1530 µM
